Results published in EP0946727B1.

What was measured:
human CD11a (human) [1] = biological target: human CD11a (human) (UniProt P20701); test: blocking of Jurkat cell adhesion to human keratinocytes (ICAM-1)
human CD11a (human) [2] = biological target: human CD11a (human) (UniProt P20701); test: FACScan on Jurkat cells
human CD11a (human) [3] = biological target: human CD11a (human) (UniProt P20701); test: saturation binding of 125I-antibody to human peripheral blood mononuclear cells, Kd(app)
human CD11a (human) [4] = biological target: human CD11a (human) (UniProt P20701); test: saturation binding, human lymphocytes, donor 1, Kd(app)
human CD11a (human) [5] = biological target: human CD11a (human) (UniProt P20701); test: cell binding, human CD11a
human CD11a (human) [6] = biological target: human CD11a (human) (UniProt P20701); test: binding to Jurkat cells (FACScan)
human CD11a (human) [7] = biological target: human CD11a (human) (UniProt P20701); test: saturation binding, human lymphocytes, donor 2, Kd(app)
human CD11a (human) [8] = biological target: human CD11a (human) (UniProt P20701); test: cell-based or functional assay
rhesus CD18 (rhesus) [9] = biological target: rhesus CD18 (rhesus) (UniProt H9Z8N5); test: blocking of rhesus lymphocyte adhesion to human keratinocytes
rhesus CD18 (rhesus) [10] = biological target: rhesus CD18 (rhesus) (UniProt H9Z8N5); test: blocking of rhesus lymphocyte adhesion to recombinant human ICAM-1 on plates

Sequence of human CD11a (human) (P20701 26-1170): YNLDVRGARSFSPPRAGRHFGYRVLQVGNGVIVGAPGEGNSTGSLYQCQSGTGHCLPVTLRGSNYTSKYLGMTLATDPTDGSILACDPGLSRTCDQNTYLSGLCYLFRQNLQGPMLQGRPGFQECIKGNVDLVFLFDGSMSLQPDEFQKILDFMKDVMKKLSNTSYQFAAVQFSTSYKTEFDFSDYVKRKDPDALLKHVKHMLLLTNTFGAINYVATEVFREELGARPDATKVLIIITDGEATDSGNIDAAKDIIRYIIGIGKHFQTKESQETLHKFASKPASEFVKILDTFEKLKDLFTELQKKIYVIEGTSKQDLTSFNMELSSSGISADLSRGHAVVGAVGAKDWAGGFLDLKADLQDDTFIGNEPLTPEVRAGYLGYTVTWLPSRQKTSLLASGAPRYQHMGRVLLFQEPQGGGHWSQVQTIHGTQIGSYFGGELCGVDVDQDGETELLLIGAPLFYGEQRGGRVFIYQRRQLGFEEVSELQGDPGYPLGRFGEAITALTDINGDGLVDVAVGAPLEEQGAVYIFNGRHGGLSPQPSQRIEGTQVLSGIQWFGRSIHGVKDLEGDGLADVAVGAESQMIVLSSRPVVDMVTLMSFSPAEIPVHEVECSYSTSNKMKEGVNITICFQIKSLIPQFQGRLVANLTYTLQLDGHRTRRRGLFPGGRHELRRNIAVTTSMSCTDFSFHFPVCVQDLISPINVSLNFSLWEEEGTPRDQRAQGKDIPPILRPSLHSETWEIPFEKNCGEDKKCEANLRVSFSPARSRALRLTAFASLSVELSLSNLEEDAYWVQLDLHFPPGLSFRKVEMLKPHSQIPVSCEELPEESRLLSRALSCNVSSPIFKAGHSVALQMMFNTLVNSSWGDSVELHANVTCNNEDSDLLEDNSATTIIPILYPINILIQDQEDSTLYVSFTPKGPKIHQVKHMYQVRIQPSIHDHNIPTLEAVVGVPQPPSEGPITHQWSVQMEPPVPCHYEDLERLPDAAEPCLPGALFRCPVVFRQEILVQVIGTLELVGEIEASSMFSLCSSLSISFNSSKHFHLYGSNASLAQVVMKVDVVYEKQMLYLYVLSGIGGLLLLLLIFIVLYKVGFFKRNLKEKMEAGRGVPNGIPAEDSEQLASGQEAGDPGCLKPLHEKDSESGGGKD
Sequence of chimeric MHM24 IgG1 (antibody) (main, form in doubt): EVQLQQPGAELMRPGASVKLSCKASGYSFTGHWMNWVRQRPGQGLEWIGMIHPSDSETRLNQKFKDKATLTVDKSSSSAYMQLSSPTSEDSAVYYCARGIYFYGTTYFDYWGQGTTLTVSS
Sequence of chimeric MHM24 IgG1 (antibody) (main, form in doubt): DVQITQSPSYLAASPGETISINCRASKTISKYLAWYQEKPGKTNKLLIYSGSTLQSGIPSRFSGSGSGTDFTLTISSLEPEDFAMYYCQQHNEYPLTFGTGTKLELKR
Sequence of humanized MHM24 IgG1 (antibody) (main, form in doubt): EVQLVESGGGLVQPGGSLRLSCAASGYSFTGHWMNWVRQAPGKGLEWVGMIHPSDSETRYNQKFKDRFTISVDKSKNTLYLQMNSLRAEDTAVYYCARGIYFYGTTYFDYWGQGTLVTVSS
Sequence of humanized MHM24 IgG1 (antibody) (main, form in doubt): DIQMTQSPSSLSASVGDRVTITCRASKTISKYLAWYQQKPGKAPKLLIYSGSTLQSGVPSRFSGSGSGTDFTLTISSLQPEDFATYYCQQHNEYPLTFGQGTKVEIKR

Row | Substance | IC50 (human CD11a (human) [1]) | EC50 (human CD11a (human) [2]) | EC50 F(ab)/EC50 F(ab)-2 (human CD11a (human) [2]) | Kd (human CD11a (human) [3]) | Kd (human CD11a (human) [4]) | Var.EC50/HuIgG1 EC50 (human CD11a (human) [5]) | EC50 (human CD11a (human) [6]) | Kd (human CD11a (human) [7]) | IC50, human mixed lymphocyte response (MLR) (human CD11a (human) [8]) | IC50 (rhesus CD18 (rhesus) [9]) | IC50 (rhesus CD18 (rhesus) [10])
1 | chimeric MHM24 IgG1 (antibody) | 0.1 nM | 5.2 ng/mL | 0.006 | – | – | – | – | – | – | – | –
2 | humanized MHM24 IgG1 (antibody) | 0.13 nM | – | 0.004 | 0.15 nM | 0.11 nM | 1 | 0.042 nM | 0.18 nM | 0.38 nM | – | –
3 | murine MHM24 (antibody) | 0.09 nM | – | – | 0.15 nM | 0.16 nM | – | – | 0.13 nM | 0.19 nM | – | –
4 | murine anti-human CD18 antibody MHM23 | – | – | – | – | – | – | – | – | – | 1.6 nM | 1.2 nM
